Biological target: StcE′ E435D-His (Escherichia coli O157:H7) (UniProt O82882)
Experiment: flow cytometry on cells

B1: C1 esterase inhibitor (C1-INH), purified (natural protein)
chain: NPNATSSSSQDPESLQDRGEGKVATTVISKMLFVEPILEVSSLPTTNSTTNSATKITANTTDEPTTQPTTEPTTQPTIQPTQPTTQLPTDSPTQPTTGSFCPGPVTLCSDLESHSTEAVLGDALVDFSLKLYHAFSAMKKVETNMAFSPFSIASLLTQVLLGAGENTKTNLESILSYPKDFTCVHQALKGFTTKGVTSVSQIFHSPDLAIRDTFVNASRTLYSSSPRVLSNNSDANLELINTWVAKNTNNKISRLLDSLPSDTRLVLLNAIYLSAKWKTTFDPKKTRMEPFHFKNSVIKVPMMNSKKYPVAHFIDQTLKAKVGQLQLSHNLSLVILVPQNLKHRLEDMEQALSPSVFKAIMEKLEMSKFQPTLLTLPRIKVTTSQDMLSIMEKLEFFDFSYDLNLCGLTEDPDLQVSAMQHQTVLELTETGVEAAAASAISVARTLLVFEVQQPFLFVLWDQQHKFPVFMGRVYDPRA
- fold level of C1-INH on erythrocyte surfaces against StcE′-His: 22 fold

Source: paper PMC2211892
